According to PMC8896826, “Cellular assays identify barriers impeding iron-sulfur enzyme activity in a non-native prokaryotic host” (eLife, 2022):

Target: T1, tryptophan 2-C-methyltransferase (TsrM) from Streptomyces laurentii (Streptomyces laurentii, UniProt C0JRZ9 1-599)
T1 construct: TsrM, tryptophan 2-C-methyltransferase of the thiostrepton synthesis pathway, Streptomyces laurentii; As purified it holds 0.9 cobalamin and 3.5 Fe per monomer ([4Fe-4S] cluster); The methods describe no TEV cleavage for TsrM, so the His-tag was probably still on the protein; also called cobalamin-dependent rSAM methyltransferase TsrM; source: E. coli BL21(DE3), coexpressed with the Btu operon, …
T1 sequence (looked up): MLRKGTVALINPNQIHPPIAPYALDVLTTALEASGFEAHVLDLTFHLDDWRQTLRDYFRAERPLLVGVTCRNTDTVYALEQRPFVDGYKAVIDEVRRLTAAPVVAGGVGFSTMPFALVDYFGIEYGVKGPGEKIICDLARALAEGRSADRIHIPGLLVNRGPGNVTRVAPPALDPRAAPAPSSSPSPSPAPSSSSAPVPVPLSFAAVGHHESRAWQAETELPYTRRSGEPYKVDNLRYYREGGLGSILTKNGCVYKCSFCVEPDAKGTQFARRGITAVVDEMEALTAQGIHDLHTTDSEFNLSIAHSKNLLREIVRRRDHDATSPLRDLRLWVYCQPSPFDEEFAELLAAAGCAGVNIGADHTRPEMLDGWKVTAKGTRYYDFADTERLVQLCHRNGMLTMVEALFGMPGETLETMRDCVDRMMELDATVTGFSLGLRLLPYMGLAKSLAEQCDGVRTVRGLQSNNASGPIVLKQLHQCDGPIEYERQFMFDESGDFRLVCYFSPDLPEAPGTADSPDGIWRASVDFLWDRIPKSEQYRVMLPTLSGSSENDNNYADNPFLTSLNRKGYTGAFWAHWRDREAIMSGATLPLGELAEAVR
Test: BLI; biotinylated ferredoxins (10 µg/mL) bound to streptavidin biosensors, plunged into TsrM solution at various concentrations (80 s association, 60 s dissociation); BLItz system in an anaerobic chamber (O2 <2 ppm); 25 mM Hepes pH 7.5, 300 mM KCl, 5% glycerol with Tween 20 and BSA
Settings: both partners purified

- Kd: 40 µM
B1: Streptomyces cattleya ferredoxin Fdx1 (natural protein, UniProt F8K3M7 1-106, looked up)
chain: MTYVIAQPCVDVKDKACIEECPVDCIYEGQRSLYIHPDECVDCGACEPVCPVEAIFYEDDTPEEWKDYYKANVEFFDELGSPGGASKLGLIERDHPFIAALPPQNG
modifications: biotin (incubation with one equivalent of NHS-PEG4-Biotin)
notes: ferredoxin Fdx1 of Streptomyces cattleya, GenBank AEW96347.1; 7.4 Fe atoms per monomer after reconstitution (two [4Fe-4S] clusters); also called double-cluster [4Fe-4S] ferredoxin; not shown: His-tag, N-terminal, cleaved
